Source: publication PMC5402353 (Journal of molecular biology, 2017)
Read-outs that look alike come from different tables or passages of the source.

T1: hexYme1p (S. cerevisiae) (UniProt P32795)
T1 sequence: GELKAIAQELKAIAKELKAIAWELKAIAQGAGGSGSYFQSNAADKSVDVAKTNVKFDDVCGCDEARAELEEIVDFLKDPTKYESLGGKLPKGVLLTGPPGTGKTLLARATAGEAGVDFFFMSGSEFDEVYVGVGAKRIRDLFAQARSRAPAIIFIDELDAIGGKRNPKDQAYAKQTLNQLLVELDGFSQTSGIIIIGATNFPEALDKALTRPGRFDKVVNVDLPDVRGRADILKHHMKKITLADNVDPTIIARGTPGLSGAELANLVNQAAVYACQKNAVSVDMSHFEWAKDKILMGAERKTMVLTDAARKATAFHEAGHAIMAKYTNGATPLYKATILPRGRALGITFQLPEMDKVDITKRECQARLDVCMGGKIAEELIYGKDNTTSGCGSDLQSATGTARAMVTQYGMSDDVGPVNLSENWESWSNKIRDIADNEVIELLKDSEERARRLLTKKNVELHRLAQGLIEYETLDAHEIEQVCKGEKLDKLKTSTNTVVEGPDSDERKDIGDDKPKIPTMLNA


Tests used:
[1] = target: T1, hexYme1p (S. cerevisiae)
[2] = target: T1, hexYme1p (S. cerevisiae); remark: listed apart in the source
[3] = target: the molecule itself; assay: SEC

Row | Molecule | initial rate of degradation of 20 μM substrate by hexYme1p (min^−1 enz6^−1) [1] | initial rate of degradation by hexYme1p (min^−1 enz6^−1) [2] | other results
1 | T12-λcI^N (from UniProt P32830 1-15) | 0.33 |  | 
2 | T9-λcI^N (from UniProt O74700 1-8) | 0.03 |  | 
3 | T10-λcI^N (from UniProt P87108 1-15) | 0.7 |  | 
4 | T13-λcI^N (from UniProt P53299 1-13) | 0.22 |  | 
5 | Tim9^D2F (natural protein) MFALNSKEQQEFQKVVEQKQMKDFMRLYSNLVERCFTDCVNDFTTSKLTNKEQTCIMKCSEKFLKHSERVGQRFQEQNAALGQGLGR |  |  | initial rate of degradation by hexYme1p, without DTT (min^−1 enz6^−1) [2]: 0.16
6 | Tim13^3–7A (natural protein) MGAAAAAGGGAPSQQKEAATTAKTTPNPIAKELKNQIAQELAVANATELVNKISENCFEKCLTSPYATRNDACIDQCLAKYMRSWNVISKAYISRIQNASASGEI |  |  | initial rate of degradation by hexYme1p, without DTT (min^−1 enz6^−1) [1]: 0.05
7 | hexYme1p (enzyme, S. cerevisiae) GELKAIAQELKAIAKELKAIAWELKAIAQGAGGSGSYFQSNAADKSVDVAKTNVKFDDVCGCDEARAELEEIVDFLKDPTKYESLGGKLPKGVLLTGPPGTGKTLLARATAGEAGVDFFFMSGSEFDEVYVGVGAKRIRDLFAQARSRAPAIIFIDELDAIGGKRNPKDQAYAKQTLNQLLVELDGFSQTSGIIIIGATNFPEALDKALTRPGRFDKVVNVDLPDVRGRADILKHHMKKITLADNVDPTIIARGTPGLSGAELANLVNQAAVYACQKNAVSVDMSHFEWAKDKILMGAERKTMVLTDAARKATAFHEAGHAIMAKYTNGATPLYKATILPRGRALGITFQLPEMDKVDITKRECQARLDVCMGGKIAEELIYGKDNTTSGCGSDLQSATGTARAMVTQYGMSDDVGPVNLSENWESWSNKIRDIADNEVIELLKDSEERARRLLTKKNVELHRLAQGLIEYETLDAHEIEQVCKGEKLDKLKTSTNTVVEGPDSDERKDIGDDKPKIPTMLNA |  |  | stoichiometry N [3]: 6

Now from value to molecule, other results behind:

Row | initial rate of degradation of 20 μM substrate by hexYme1p (min^−1 enz6^−1) [1] | initial rate of degradation by hexYme1p (min^−1 enz6^−1) [2] | Molecule | other results
8 |  | 0.05 | Tim10^2–6A (natural protein) MAAAAAGGGQPQLSSQQKIQAAEAELDLVTDMFNKLVNNCYKKCINTSYSEGELNKNESSCLDRCVAKYFETNVQVGENMQKMGQSFNAAGKF | 
9 |  | 0.43 | Tim10^F-alone (natural protein) MAFAAFAGGQPQLSSQQKIQAAEAELDLVTDMFNKLVNNCYKKCINTSYSEGELNKNESSCLDRCVAKYFETNVQVGENMQKMGQSFNAAGKF | 
10 |  | 0.11 | Tim10^F3A/F6A (natural protein) MSALGAGGGQPQLSSQQKIQAAEAELDLVTDMFNKLVNNCYKKCINTSYSEGELNKNESSCLDRCVAKYFETNVQVGENMQKMGQSFNAAGKF | 
